Test results from PMC9307952, “Lipoate protein ligase B primarily recognizes the C8-phosphopantetheine arm of its donor substrate and weakly binds the acyl carrier protein” (The Journal of Biological Chemistry, 2022).

Substrate: CCCCCCCC(=O)SCCNC(=O)CCNC(=O)[C@H](O)C(C)(C)COP(=O)(O)OP(=O)(O)OC[C@H]1O[C@@H](n2cnc3c(N)ncnc32)[C@H](O)[C@@H]1OP(=O)(O)O
Assay: purified protein
Conditions: 5 μM LipB, 25 μM E. coli GcvH as acceptor, 0-160 μM C8-CoA, 50 mM Tris-HCl, 200 mM NaCl, pH 8.0, 30 °C

B1: E. coli LipB (EcLipB) (Escherichia coli K-12) (protein)
chain: MYQDKILVRQLGLQPYEPISQAMHEFTDTRDDSTLDEIWLVEHYPVFTQGQAGKAEHILMPGDIPVIQSDRGGQVTYHGPGQQVMYVLLNLKRRKLGVRELVTLLEQTVVNTLAELGIEAHPRADAPGVYVGEKKICSLGLRIRRGCSFHGLALNVNMDLSPFLRINPCGYAGMEMAKISQWKPEATTNNIAPRLLENILALLNNPDFEYITA
Protein B1 has a Km of 12.24 ± 0.79 µM, a Vmax of 1.08 µmol/min and a kcat of 0.00367 s⁻¹.
